From the supplement of paper PMC9112550, “Optimization of the antimicrobial peptide Bac7 by deep mutational scanning” (BMC Biology, 2022)

Test system: Escherichia coli TOP10
Test: shrunken log2 fold change of peptide-encoding DNA abundance (4.5 h post-induction vs induction); higher = less antimicrobial activity (less host growth inhibition)
Details: time post-induction: 4.5 h; library: site-saturation at positions 5, 18, 19, 20
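Note: peptides expressed intracellularly from a pBAD plasmid library in pooled LB shake-flask culture, induced with 0.3% L-arabinose, DNA abundance read by NGS, three biological replicates, DESeq2 with apeglm shrinkage.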

| Sequence | shrunken log2 fold change |
| --- | --- |
| RRIRWRPPRLPRPRPRPFPWPRP | -0.0524 |
| RRIRKRPPRLPRPRPRPYCFPRP | -0.258 |
| RRIRHRPPRLPRPRPRPHQFPRP | 0.0262 |
| RRIRYRPPRLPRPRPRPHEGPRP | -0.199 |
| RRIRPRPPRLPRPRPRPKHIPRP | -0.301 |
| RRIRQRPPRLPRPRPRPTTGPRP | 0.0143 |
| RRIRPRPPRLPRPRPRPSPSPRP | 0.132 |
| RRIRHRPPRLPRPRPRPFRGPRP | -0.254 |
| RRIRWRPPRLPRPRPRPSVQPRP | 0.128 |
| RRIRHRPPRLPRPRPRPQKDPRP | 0.0122 |
| RRIRCRPPRLPRPRPRPRTKPRP | 0.246 |
| RRIRRRPPRLPRPRPRPPLRPRP | 0.964 |
| RRIRMRPPRLPRPRPRPLFSPRP | 0.0255 |
| RRIRDRPPRLPRPRPRPDACPRP | 0.52 |
| RRIRERPPRLPRPRPRPLGLPRP | -0.00554 |
| RRIRPRPPRLPRPRPRPCRWPRP | 0.0987 |
| RRIRARPPRLPRPRPRPNDEPRP | 0.361 |
| RRIRARPPRLPRPRPRPQHEPRP | 0.0966 |
| RRIRSRPPRLPRPRPRPDVYPRP | -0.0361 |
| RRIRRRPPRLPRPRPRPEPCPRP | 0.388 |
| RRIRRRPPRLPRPRPRPLYTPRP | -0.132 |
| RRIRNRPPRLPRPRPRPHKRPRP | -0.263 |

| Sequence | shrunken log2 fold change |
| --- | --- |
| RRIRPRPPRLPRPRPRPTMNPRP | -0.0529 |
| RRIRERPPRLPRPRPRPYSPPRP | -0.0774 |
| RRIRMRPPRLPRPRPRPIAIPRP | 0.226 |
| RRIRNRPPRLPRPRPRPRHIPRP | -0.0233 |
| RRIRLRPPRLPRPRPRPFLAPRP | -0.141 |
| RRIRHRPPRLPRPRPRPNNAPRP | -0.11 |
| RRIRERPPRLPRPRPRPRWQPRP | 0.245 |
| RRIRQRPPRLPRPRPRPCPTPRP | -0.13 |
| RRIRLRPPRLPRPRPRPLSEPRP | 0.0386 |
| RRIRRRPPRLPRPRPRPPEIPRP | -0.17 |
| RRIRKRPPRLPRPRPRPRNIPRP | -0.116 |
| RRIRYRPPRLPRPRPRPRFTPRP | -0.17 |
| RRIRERPPRLPRPRPRPKIFPRP | 0.0686 |
| RRIRSRPPRLPRPRPRPYGDPRP | -0.115 |
| RRIRGRPPRLPRPRPRPAFYPRP | 0.178 |
| RRIRFRPPRLPRPRPRPVAQPRP | 0.0899 |
| RRIRWRPPRLPRPRPRPANRPRP | 0.0566 |
| RRIRNRPPRLPRPRPRPVPTPRP | 0.288 |
| RRIRPRPPRLPRPRPRPTFNPRP | -0.155 |
| RRIRWRPPRLPRPRPRPVFYPRP | -0.193 |
| RRIRIRPPRLPRPRPRPRMEPRP | -0.00396 |
| RRIRKRPPRLPRPRPRPQNPPRP | 0.0671 |

| Sequence | shrunken log2 fold change |
| --- | --- |
| RRIRQRPPRLPRPRPRPTLRPRP | -0.0246 |
| RRIRWRPPRLPRPRPRPHIAPRP | 0.0545 |
| RRIRHRPPRLPRPRPRPYIYPRP | -0.347 |
| RRIRCRPPRLPRPRPRPCSRPRP | -0.0999 |
| RRIRVRPPRLPRPRPRPSIMPRP | -0.451 |
| RRIRCRPPRLPRPRPRPLRRPRP | 0.519 |
| RRIRPRPPRLPRPRPRPDHQPRP | -0.0869 |
| RRIRYRPPRLPRPRPRPSIKPRP | -0.952 |
| RRIRVRPPRLPRPRPRPCHHPRP | -0.00671 |
| RRIRSRPPRLPRPRPRPKFEPRP | 0.12 |
| RRIRIRPPRLPRPRPRPFYLPRP | -0.882 |
| RRIRIRPPRLPRPRPRPYWMPRP | -0.379 |
| RRIRRRPPRLPRPRPRPVHAPRP | 0.67 |
| RRIRGRPPRLPRPRPRPLKAPRP | 0.0177 |
| RRIRYRPPRLPRPRPRPFRWPRP | -0.14 |
| RRIRDRPPRLPRPRPRPEYDPRP | 0.00968 |
| RRIRYRPPRLPRPRPRPHLNPRP | -1.15 |
| RRIRDRPPRLPRPRPRPSFAPRP | 0.263 |
| RRIRSRPPRLPRPRPRPSRDPRP | -0.0156 |
| RRIRSRPPRLPRPRPRPIEMPRP | -0.0731 |
| RRIRFRPPRLPRPRPRPPWMPRP | 0.355 |
| RRIRERPPRLPRPRPRPPPDPRP | 0.505 |

| Sequence | shrunken log2 fold change |
| --- | --- |
| RRIRERPPRLPRPRPRPMIQPRP | -0.176 |
| RRIRSRPPRLPRPRPRPQSNPRP | -0.613 |
| RRIRNRPPRLPRPRPRPQIGPRP | 0.0326 |
| RRIRSRPPRLPRPRPRPIMPPRP | -0.121 |
| RRIRHRPPRLPRPRPRPIPFPRP | 0.0406 |
| RRIRKRPPRLPRPRPRPKTKPRP | 0.411 |
| RRIRMRPPRLPRPRPRPCRIPRP | -0.0476 |
| RRIRERPPRLPRPRPRPILWPRP | -0.161 |
| RRIRPRPPRLPRPRPRPGGSPRP | 0.166 |
| RRIRRRPPRLPRPRPRPQIQPRP | 0.151 |
| RRIRERPPRLPRPRPRPIKKPRP | 0.00021 |
| RRIRLRPPRLPRPRPRPKSSPRP | 0.0397 |
| RRIRHRPPRLPRPRPRPIFTPRP | -0.191 |
| RRIRERPPRLPRPRPRPCGHPRP | 0.0222 |
| RRIRHRPPRLPRPRPRPLAMPRP | 0.287 |
| RRIRTRPPRLPRPRPRPFWSPRP | -0.178 |
| RRIRERPPRLPRPRPRPDWMPRP | 0.0111 |
| RRIRGRPPRLPRPRPRPAQPPRP | 0.377 |
| RRIRDRPPRLPRPRPRPMPIPRP | 0.000679 |
| RRIRWRPPRLPRPRPRPPGDPRP | 0.88 |
| RRIRGRPPRLPRPRPRPYLHPRP | -0.385 |
| RRIRVRPPRLPRPRPRPCLNPRP | -0.193 |

| Sequence | shrunken log2 fold change |
| --- | --- |
| RRIRFRPPRLPRPRPRPQWYPRP | -0.981 |
| RRIRNRPPRLPRPRPRPDWQPRP | 0.184 |
| RRIRFRPPRLPRPRPRPIKTPRP | -0.0134 |
| RRIRTRPPRLPRPRPRPWACPRP | -0.151 |
| RRIRWRPPRLPRPRPRPYSEPRP | -0.0145 |
| RRIRFRPPRLPRPRPRPDHFPRP | -0.331 |
| RRIRNRPPRLPRPRPRPMNYPRP | -0.00918 |
| RRIRMRPPRLPRPRPRPVPNPRP | 0.12 |
| RRIRSRPPRLPRPRPRPMWYPRP | -0.0284 |
| RRIRNRPPRLPRPRPRPDYCPRP | -0.00677 |
| RRIRRRPPRLPRPRPRPMWPPRP | 0.265 |
| RRIRWRPPRLPRPRPRPVEFPRP | -0.177 |
| RRIRTRPPRLPRPRPRPGVCPRP | 0.442 |
| RRIRRRPPRLPRPRPRPNDMPRP | 0.13 |
| RRIRPRPPRLPRPRPRPTHKPRP | 0.283 |
| RRIRCRPPRLPRPRPRPTEEPRP | 0.325 |
| RRIRHRPPRLPRPRPRPEGKPRP | 0.082 |
| RRIRQRPPRLPRPRPRPGETPRP | 0.0131 |
| RRIRHRPPRLPRPRPRPHYSPRP | -0.142 |
| RRIRKRPPRLPRPRPRPIPRPRP | 1.3 |
| RRIRQRPPRLPRPRPRPKKNPRP | 0.0205 |
